Test results: patent US20220127585A1 (UNIVERSITY OF SOUTH CAROLINA, published 2022)
Bridges are numbered along the chain shown (N, C = ends). Where no end group is shown, it is not given here. [ ]: non-standard residue; d: D form. The star is where a group is joined. C4 = C-terminal cap: phenethyl group with a meta isopentyloxy group, CC(C)CCOc1cccc(CCN*)c1; NMeR = CN[C@@H](CCCNC(=N)N)C(=O)O; PhAc = O=C(Cc1ccccc1)*

Assays:
B-Raf kinase [1] = target: T1, B-Raf kinase (UniProt P15056 448-723, limits assumed); experiment: intrinsic tryptophan fluorescence (ITF), column head 'Kd (ITF) (µM)'
T1 sequence (P15056 448-723 limits assumed): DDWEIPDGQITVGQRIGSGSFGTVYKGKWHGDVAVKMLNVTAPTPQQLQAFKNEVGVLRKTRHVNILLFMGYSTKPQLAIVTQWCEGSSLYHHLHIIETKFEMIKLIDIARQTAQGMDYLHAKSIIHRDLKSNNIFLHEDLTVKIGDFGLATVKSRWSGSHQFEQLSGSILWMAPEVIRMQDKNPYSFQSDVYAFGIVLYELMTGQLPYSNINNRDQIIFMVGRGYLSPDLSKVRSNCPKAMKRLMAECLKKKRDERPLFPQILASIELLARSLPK
Protocol: Fluorescence intensity was measured with a Hitachi F-2500 Fluorescence Spectrophotometer. A 1.6 mL of protein solution (0.5 μM) was placed in a cuvette and equilibrated at 15° C. for 1 hour. After equilibration, small increments (2-15 μL) of the ligand solution were injected in the cuvette. The experiments were performed in 20 mM HEPES buffer (pH 7.5), 10 mM MgCl2, 30 mM NaCl. […] The slits were set at 10 and 10 nm in the excitation and emission respectively. To determine dilution effect of B-Raf (due to ligand addition) and any fluorescence effect by unbound ligand, a blank sample containing Trp with the same fluorescence signal was titrated with ligand additions as described above. The sample absorbance was kept below 0.1 to minimize the inner filter effect.

B-Raf kinase [2] = target: T1, B-Raf kinase; experiment: binding affinity, Table 3 (method not given; the Methods describe fluorescence titration)
B-Raf kinase [3] = target: T1, B-Raf kinase; experiment: direct binding affinity (Kd; values in FIG. 14)

B1: SEQ ID NO: 63 (TRHVNI) with N-Cap N2 and C-Cap C4 (peptide)
peptide: PhAc-TRHVNI-C4
SMILES: CC[C@H](C)[C@H](NC(=O)[C@H](CC(N)=O)NC(=O)[C@@H](NC(=O)[C@H](Cc1c[nH]cn1)NC(=O)[C@H](CCCNC(=N)N)NC(=O)[C@@H](NC(=O)Cc1ccccc1)[C@@H](C)O)C(C)C)C(=O)NCCc1cccc(OCCC(C)C)c1
- Kd (B-Raf kinase [1]): 280 nM

Binder: KRHVAE (lactam 1-6) [SEQ ID NO: 48 (KRHVAE)]
- Kd (B-Raf kinase [2]): 300 nM

Binder: K[NMeR][dA]PAE (also: cyclic, closure not given here) [SEQ ID NO: 64 (K-MeR-a-PAE)]
- fold increase in direct binding affinity compared to SEQ ID NO: 1 (B-Raf kinase [3]): 225 fold
- Kd (B-Raf kinase [1]): 17 nM
